# The DeepSol protein solubility set
# Assay: soluble on expression in E. coli; label from the status in PepcDB or PDB records
row,Sequence,soluble on expression in E. coli
1,MRVLVLGGGVLGRAIAESLFGEFEVIVVEKDEVRVQTLAEKGLQVVQGDFSYTATLLKAHIEKADLIVITISDPEVIAKTLHVIQNNNKDAAVLLILPEDTSLEEIASIAKEKYDTDVKVDYVINPRSAIVRAVVDTIEKIGEKKNSMKLIEKLNEIKENTDTLLIVMHDNPDPDCMASASALSLIAQTVGLKTVIVYGGDITHHQNRAMVNILGMDFRKVSRGSYEIKRHSAIAIVDAQPNGNISILDDEDIAKVQIIIDHHQILQNLREKLPDNCFVDIRPEANSTSSILVEYLKSLEIPIDENLATALFYGMYIDTKKFSKLSKIDIKAIEFLSGHVDYDLLDKIEFPDISTETAEILARAILNRRIYKNVIISNVGFIANRDAIAEAADFLLRLEGITTVLVFGIVDDRIEISARTRDVRVNIGAIMKEAFGSLGSGGGHPQAGGARIPLGIFKLAKDKASLLRLVEEAITERFLEALGMREGT,not soluble
2,MGSDKIHHHHHHMQPSAVTNTTNLTASPSQFYTWQNYRCTYEIHQPTNTTSEGIPLLLIHPIGVGLSRQFWQRFCHEWYNSGQRNSIYNPDLLGCGESDMPHLAYTPSDWAEQLQYFLQTVVRQPVIVVVQGALLPVAIALVQKESNLISRLVLSGPPTWALMTNKPPEWQQKFIWNVLDSPLGIPFYRYARTPKFLRSFSTRQLFASESAVDAEWLNTLVAGAENPASRHAVFSFLAGFWRQDYTNFMASIQQPTLAVVGETASSISQNNKKETPDDRLANYLACFPQSRGIKINGRNVLPYESTAEFVAAIAPFINEVS,not soluble
3,MEQQKKTTIVLFSGDYDKAMAAYIIANGAAAYDQEVTIFHTFWGLNALRKDEYVNVKKTFIEKVFGRMMPRGADKMGLSKMNFAGMGPKMIKGIMKKHNTMPLPDLIDLAKEQGIKLVACQMTVDLLGLKEEEIMEGVEFAGVGAYLADASDGNVNLFI,not soluble
4,MGSDKIHHHHHHMKSYIIVGAGILGASTAYHLAKTGARVTVIDRKEPGQATDAAAGIVCPWLSQRRNQDWYQLAKGGARYYKDLIHQLEKDGESDTGYKRVGAISIHTDASKLDKMEERAYKRREDAPEIGDITRLSASETKKLFPILADGYESVHISGAARVNGRALCRSLLSAAEKRGATVIKGNASLLFENGTVTGVQTDTKQFAADAVIVTAGAWANEILKPLGIHFQVSFQKAQIMHFEMTDADTGSWPVVMPPSDQYILSFDNGRIVAGATHENDAGLDDLRVTAGGQHEVLSKALAVAPGLADAAAVETRVGFRPFTPGFLPVVGAVPNVQGLYAANGLGASGLTMGPFLGAELAKLVLGKQTELDLSPYDPAGALA,not soluble
5,MAHHHHHHMSVVTTLSGVFEADLEATLMGYIHEAIGNAVNKGLQYARSTAQDRVLKMLIAYRRVCTSNATSSLLMPSRLRLIPLFVLSFMKADALVEGTTVPIDDRVQKLFLLMTIPMHQCVTYLYPTLYAVHHLLSEPTSGVIDPETGHCVLPGWQQLIFDSITTDGVYVLCDEQARIVYLWIGSSVVPEVSLELFGTTNALDVGRTVFFENFGERLKNVLYTCLMRDDGMRRFVILHEKDRGEEAFFRQFKEENEGGSMGYDQLLVHLHREVKKSIE,not soluble
6,TIYLYKNSIPSGKNKGENAILIDNKTIVEQLESAAKKEDKKSGESTTEQTQIQSKSVTEQKQPKIIGYTTTGNVHEDNKHIFPIDKLTSDRNFDRKIIVGATEETLDKSNTLQSNEAIVLPAPSKYKSTDTNKVTITQGPNIIGIHVNEKENAETQKFVDW,soluble
7,MYTHLTDMTNMLDTAKIGTSDGTFPLANAQNLQKAVEELQTGISKGMAGYFVLQYEIDNYCIAAEKAIAEFQDSYQQTLQPGTPAELKVFGIDGKGRIEFGSDPAYGGGNTFTVESWVKYDAGFFESGIGSFLSTFDGKQPNEGWMINFLGSNLRTTIGMGPQEGRVLEEGRAYPDNFGKWNHVVTVWDNTLPEGQLKMYVNGELFFSKTNDVKNDAGVLQNYMPNTRNQNMWAFQEPTDNSRCMTGFIKKFRMWSTAKSANEVKTLMNSDVTGTESGLVCAWDFTTVVEDVTNIPDKTGKHVAKIVGNYKWFKVEN,not soluble
8,MTIKIALLGFGTVAKGIPYLLKENQHKLLSLEGEDIVIDKVLVRDNESRQRFINQGFTYNFVTEINTILQDSQIDIVVELMGGIEPAKTYLSQALGFGKHIVTANKDLIALHGKELMDLADARGLALFYEGAVAGGIPILRTLSHSFASDKMTRLLGILNGTSNFMLTKMFEEGWSYEQALKKAQELGYAESDPTNDVEGIDTAYKATILSQFGFGMPIDFDDVNYKGISSIRSEDVEVAQEMGFAIKLVADLRETPTGISVDVSPTLISQKHPLAAVNHVMNAVFIESIGIGQSLFYGPGAGQNPTATSVLADIIDISRSIRSQIKIKPMNTYHCPCRLSMQSDIFNEYYLAISLRNAEDSDTLGRYFEQENIGLKNVIEKALGDKQQEIYVLTDEVSQEKITQFIEEFPESGVIQLINVFKVIGGLEHHHHHH,soluble
9,MPIEIITDSGADLPQSYIREHRIAFLPLVVHWNGQDYKDGITIEPKQVYDAMRQGHTVKTAQPSPLAMKELFLPYAKENRPCLYIAFSSKLSGTYQTAMAVRSELLDEYPEFRLTIIDSKCASLGQGLAVMKAVELAKQNTPYNLLCETIESYCRHMEHIFTVDNLDYLARGGRISKTAAAFGGLLNIKPLLHVEDGALIPLEKWRGRKKVLKRMVELMGERGDDLQKQTIGISHADDEETALELKQMIEETHGCTRFFLSDIGSAIGAHAGPGTIALFFLNKYIEI,soluble
10,MSLNAQTKSLHQLQQEFVDLRCGMFIHFNMPTFFNEDWPDPDAAPELFNPVRMDCKQWAKAAKSANMTYGCLTTKHHSGFCIWDTKTTDYSVMSSPFKRDVVKEYADAFRAEGMKVMLYYSILDTHARLRPKCITPQHIEMIKEQLRELLTNYGEITALIIDGWDAPWSRISYDDVPFEDIYRLVKSIQPNCLVMDLNAAKYPAEALFYTDIKSYEQGAGQHISKDTNRLPALSCLPLQQNWFWKESFPTTPVKSPAQMVNDNIIPMGKSYCNFILNVAPNRDGLMDANALKALKEIGKLWKNDGRVATVPEADAPIISSNIAKYQPAEGTWSSDYAIMDFANDDDFGTCWNSNPEVKVPWYSVTFEREKSFNMVVITDRNNDRLQEYRLEYRAGGTWKPLYEGKAPTGLRVKIHRFDTVWGDAVRMTVLNSNGTTSIAEFGVYCEREGHHHHHH,soluble
11,MSLMKFIIKLFPEITIKSQSVRLRFIKILTGNIRNVLKHYDETLAVVRHWDNIEVRAKDENQRLAIRDALTRIPGIHHILEVEDVPFTDMHDIFEKALVQYRDQLEGKTFCVRVKRRGKHDFSSIDVERYVGGGLNQHIESARVKLTNPDVTVHLEVEDDRLLLIKGRYEGIGGFPIGTQEDVLSLISGGFDSGVSSYMLMRRGCRVHYCFFNLGGAAHEIGVRQVAHYLWNRFGSSHRVRFVAINFEPVVGEILEKIDDGQMGVILKRMMVRAASKVAERYGVQALVTGEALGQVSSQTLTNLRLIDNVSDTLILRPLISYDKEHIINLARQIGTEDFARTMPEYCGVISKSPTVKAVKSKIEAEEEKFDFSILDKVVEEANNVDIREIAQQTEQEVVEVETVNGFGPNDVILDIRSIDEQEDKPLKVEGIDVVSLPFYKLSTKFGDLDQNKTWLLWCERGVMSRLQALYLREQGFNNVKVYRPEGGSHHHHHH,soluble
12,MGSDKIHHHHHHMSAALSHWRRWPSVANYGKKRFDIHQSSLKKRQGLMTPHFFGFGSLVNTATHVYGNTRPARLEGWRRTWVRTPDRSMAFLSVTPAPGHVIEGLLAAVPNGDWAALDERETGYVRVDVTPQVAHDMAPAPQISLYQVPEESHDRNARDHKILLSYLDVVLRGYREVFGDTGAEAFMATTDGWDTPILNDRATPYYPRHQVMTPDEHALHDALIAEAGAQVLAGGE,not soluble
13,MSLNGFCARLRAITFNERLKMKIAVLLSGGVDSSYSAYSLKEQGHELVGIYLKLHASEKKHDLYIKNAQKACEFLGIPLEVLDFQKDFKSAVYDEFINAYEEGQTPNPCALCNPLMKFGLALDHALKLGCEKIATGHYARVKEIDKVSYIQEALDKTKDQSYFLYALEHEVIAKLVFPLGDLLKKDIKPLALNAMPFLGTLETYKESQEICFVEKSYIDTLKKHVEVEKEGVVKNLQGEVIGTHKGYMQYTIGKRKGFSVKGALEPHFVVGIDAKKNELIVGKKEDLATHSLKAKNKSLTKDFKDGEYFIKARYRSVPTKAFVSLKDGMIEVEFKEPFYGVAKGQALVVYKDDILLGGGVIVEGHHHHHH,soluble
